Data published in paper PMC10132971.
Blank lines part the entries; values can stand above or below the substance they belong to.

Key:
[1] = biological target: Smc5/6 hexameric complex lacking Nse5/6 with Nse4-6xHis-SNAP labelled with Alexa 647 (S. cerevisiae) (UniProt Q08204); test: single-molecule fluorescence, counting of photobleaching steps; Alexa 647-labelled complex (2 nM unless stated otherwise) on surface-tethered lambda-DNA; 40 mM Tris-HCl pH 7.5, 100 mM NaCl, 7.5 mM MgCl2, 2 mM ATP, 30 °C; loop-extruding complexes; details: remark: other sources report otherwise
[2] = biological target: Smc5/6 hexameric complex lacking Nse5/6 (S. cerevisiae) (UniProt Q08204); test: mass photometry; 10 nM complex with 5 nM 200 bp linear double-stranded DNA, no ATP; 40 mM Tris-HCl pH 7.5, 100 mM potassium glutamate, 7.5 mM MgCl2, 30 °C for 10 min; monomer to dimer of complexes; details: remark: other sources report otherwise
[3] = biological target: Smc5/6 hexameric complex lacking Nse5/6 (S. cerevisiae) (UniProt Q08204); test: mass photometry; 10 nM hexamer with 10 nM purified Nse5/6 (1:1) and 5 nM 200 bp DNA, no ATP; 40 mM Tris-HCl pH 7.5, 100 mM potassium glutamate, 7.5 mM MgCl2, 30 °C for 10 min; details: remark: other sources report otherwise
[4] = biological target: Smc5/6 hexameric complex lacking Nse5/6 (S. cerevisiae) (UniProt Q08204)
[5] = biological target: Smc5/6 octameric complex with Nse2-6xHis-SNAP labelled with Alexa 647 (S. cerevisiae) (UniProt Q08204); test: single-molecule fluorescence, counting of photobleaching steps; Alexa 647-labelled complex (2 nM unless stated otherwise) on surface-tethered lambda-DNA; 40 mM Tris-HCl pH 7.5, 100 mM NaCl, 7.5 mM MgCl2, 2 mM ATP, 30 °C; loop-extruding complexes
[6] = biological target: Smc5/6 octameric complex with Nse4-6xHis-SNAP labelled with Alexa 647 (S. cerevisiae) (UniProt Q08204); test: as above
[7] = biological target: Smc5/6 octamer (WT, with Nse5/6) (Saccharomyces cerevisiae (W303)) (UniProt Q08204+Q12749+Q07913+P38632+Q05541+P43124+Q03718+P40026); test: single-molecule fluorescence; details: 1 M NaCl wash after 1 h incubation; nonlooping complexes, n=481; both ends tethered to surface; Mass photometry: 40 mM Tris-HCl pH 7.5, 100 mM K-glutamate, 7.5 mM MgCl2, 30 C, 10 nM protein, 5 nM DNA; single-molecule: 2 nM Smc5/6, imaging buffer with …
[8] = biological target: Smc5/6 hexamer (lacking Nse5/6) (Saccharomyces cerevisiae (W303)) (UniProt Q08204+Q12749+Q07913+P38632+Q05541+P43124); test: single-molecule fluorescence; details: 1 M NaCl wash; both ends tethered to surface; Mass photometry: 40 mM Tris-HCl pH 7.5, 100 mM K-glutamate, 7.5 mM MgCl2, 30 C, 10 nM protein, 5 nM DNA; single-molecule: 2 nM Smc5/6, imaging buffer with …

stoichiometry N [1]: 2
Substance: Smc5/6 hexameric complex lacking Nse5/6 with Nse4-6xHis-SNAP labelled with Alexa 647, Q08204 1-1093; Q12749 1-1114; Q07913 1-336; P38632 1-267; Q05541 1-303; P43124 1-402

stoichiometry N [5]: 2
Substance: Smc5/6 octameric complex with Nse2-6xHis-SNAP labelled with Alexa 647 (from UniProt Q08204 1-1093; Q12749 1-1114; Q07913 1-336; P38632 1-267; Q05541 1-303; P43124 1-402; Q03718 1-556)

dimer fraction [6]: 100% | stoichiometry N [6]: 2
Substance: Smc5/6 octameric complex with Nse4-6xHis-SNAP labelled with Alexa 647 (from UniProt Q08204 1-1093; Q12749 1-1114; Q07913 1-336; P38632 1-267; Q05541 1-303; P43124 1-402; Q03718 1-556)

Further lines, the substance ahead of its results:

Substance: Smc5/6 hexameric complex lacking Nse5/6, Q08204 1-1093; Q12749 1-1114; Q07913 1-336; P38632 1-267; Q05541 1-303; P43124 1-402
dimers, percent of normalized population [2]: 40% | dimers, percent of total counts [2]: 25% | dimers, percent of total counts, with Nse5/6 added 1:1 [3]: 3% | looping probability of DNA with the hexamer compared with the WT octamer [4]: 15 fold

Substance: lambda DNA, 48.5 kbp (48,502 bp)
binding signal (% remaining bound after high-salt wash) [7]: 7 | binding signal (% remaining bound after high-salt wash) [8]: 0
